Test system: Bacillus subtilis
Assay: cleaved RNA product abundance (RNA/gDNA barcode ratio) relative to median wild-type variant (ratio to wild type); higher = more accumulation of the downstream cleavage product
Details: cleavage site: cggR-gapA (positions -7 to +36 mutated)
In short: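 Cleaved product abundance for each construct is its RNA-to-gDNA barcode ratio, scaled to the median construct carrying the unmutated site. Cleaved RNA was isolated on a gel, reverse transcribed and barcode-sequenced, with genomic DNA barcodes sequenced alongside and UMIs collapsed. The reporters were truncated aprE or tetM mRNAs with barcoded, mutagenized RNase Y cleavage-site windows integrated into the B. subtilis chromosome, and cultures grew in LB at 37°C from OD600 0.0003 to 0.3.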

[1] = experiment (reporter, strain, medium): exp 4a: truncated aprE reporter, strain BJT201 with 2% xylose (RNase J1 expressed)
[2] = experiment (reporter, strain, medium): exp 2b: truncated aprE reporter, strain BJT200

Row | Sequence | cleaved RNA product abundance [1] | cleaved RNA product abundance [2] | cleaved RNA product abundance (experiment (reporter, strain, medium): exp 6: tetM reporter, strain 168)
1 | ACAGACGAAGGAGCCGCAAAGAAGTTATTAAGGGATGAATGATCCTTCAATATAAATATCTCTCACTTATTTAAA | 0.258 |  | 
2 | ACAGACGAAGGAGCCGCAAAGAAGTTATTAAGGGATGAATTAACCCTCAATATAAATATCTCTCACTTATTTAAA | 0.492 |  | 
3 | ACAGACGAAGGAGCCGCAAAGAAGTTATTAAGGGATGAATTATACCTCAATATAAATATCTCTCACTTATTTAAA | 0.162 | 0.139 | 
4 | ACAGACGAAGGAGCCGCAAAGAAGTTATTAAGGGATGAATTATCACTCAATATAAATATCTCTCACTTATTTAAA | 0.178 |  | 
5 | ACAGACGAAGGAGCCGCAAAGAAGTTATTAAGGGATGAATTATCCATCAATATAAATATCTCTCACTTATTTAAA | 0.144 | 0.163 | 
6 | ACAGACGAAGGAGCCGCAAAGAAGTTATTAAGGGATGAATTATCCCACAATATAAATATCTCTCACTTATTTAAA | 0.319 |  | 
7 | ACAGACGAAGGAGCCGCAAAGAAGTTATTAAGGGATGAATTATCCCTAAATATAAATATCTCTCACTTATTTAAA | 0.433 | 0.399 | 
8 | ACAGACGAAGGAGCCGCAAAGAAGTTATTAAGGGATGAATTATCCCTCAACATAAATATCTCTCACTTATTTAAA | 0.284 | 0.179 | 
9 | ACAGACGAAGGAGCCGCAAAGAAGTTATTAAGGGATGAATTATCCCTCAATATAAAAATCTCTCACTTATTTAAA | 0.966 |  | 
10 | ACAGACGAAGGAGCCGCAAAGAAGTTATTAAGGGATGAATTATCCCTCAATATAAATACCTCTCACTTATTTAAA |  | 0.469 | 
11 | ACAGACGAAGGAGCCGCAAAGAAGTTATTAAGGGATGAATTATCCCTCAATATAAATATCTCTCACTTATTTAAA | 0.845 | 0.687 | 0.559
12 | ACAGACGAAGGAGCCGCAAAGAAGTTATTAAGGGATGAATTATCCCTCAATATACATATCTCTCACTTATTTAAA | 0.442 |  | 
13 | ACAGACGAAGGAGCCGCAAAGAAGTTATTAAGGGATGAATTATCCCTCAATATATATATCTCTCACTTATTTAAA | 0.616 |  | 
14 | ACAGACGAAGGAGCCGCAAAGAAGTTATTAAGGGATGAATTATCCCTCACTATAAATATCTCTCACTTATTTAAA | 0.208 |  | 
15 | ACAGACGAAGGAGCCGCAAAGAAGTTATTAAGGGATGAATTATCCCTCATTATAAATATCTCTCACTTATTTAAA | 0.32 |  | 
16 | ACAGACGAAGGAGCCGCAAAGAAGTTATTAAGGGATGAATTATCCCTCTATATAAATATCTCTCACTTATTTAAA | 0.3 |  | 
17 | ACAGACGAAGGAGCCGCAAAGAAGTTATTAAGGGATGAATTATCCCTGAATATAAATATCTCTCACTTATTTAAA |  | 0.396 | 
18 | ACAGACGAAGGAGCCGCAAAGAAGTTATTAAGGGATGAATTATCCCTTAATATAAATATCTCTCACTTATTTAAA | 0.438 |  | 
19 | ACAGACGAAGGAGCCGCAAAGAAGTTATTAAGGGATGAATTATCCTTCAATATAAATATCTCTCACTTATTTAAA | 0.284 | 0.232 | 
20 | ACAGACGAAGGAGCCGCAAAGAAGTTATTAAGGGATGAATTATCTCTCAATATAAATATCTCTCACTTATTTAAA | 0.37 | 0.318 | 
21 | ACAGACGAAGGAGCCGCAAAGAAGTTATTAAGGGATGAATTATTCCTCAATATAAATATCTCTCACTTATTTAAA | 0.215 |  | 
22 | ACAGACGAAGGAGCCGCAAAGAAGTTATTAAGGGATGAATTTTCCCTCAATATAAATATCTCTCACTTATTTAAA | 0.73 |  | 
23 | ACAGACGAAGGAGCCGCAAAGAAGTTATTAAGGGATGACCAATCCCTCAATATAAATATCTCTCACTTATTTAAA | 0.749 |  | 

Source: the supplement of paper PMC11780869
